Assays:
Type in all cases: cell-based, human
[1] = test system: MU89 melanoma cell line; test: Antibody staining and flow cytometry (intracellular Melan-A/MART-1, gp100, TRP-2; surface MHC Class I/II)
Protocol: (§1) Cells were fixed with 1% formaldehyde, permeabilized with 0.1% saponin, stained with monoclonal antibodies to melanocyte antigens. Antibodies were obtained with specificity for: MART-1 from Vector Labs (Burlingame, Calif.); gp100 HMB45 from DakoCytomation (Carpinteria, Calif.) and then visualized with goat anti-mouse FITC-conjugated secondary antibody from Invitrogen (Fredrick, Md.). The level of EGFP was determined by flow cytometry of unfixed cells that were washed and resuspended in 1×PBS.
(§2) Cells were plated at a density of 1×10^5 in 1 ml of medium in a 24-well plate and cultured for varying times as indicated in results. […] After incubation, cells were collected by trypsinization and then evaluated by flow cytometry.
(§3) Intracellular staining and flow cytometric analyses of cytoplasmic Melan-A/MART-1, and gp100 expression were performed as described previously. Cells were fixed with 1% formaldehyde, permeabilized with 0.1% saponin, stained with monoclonal antibodies to melanocyte antigens. Antibodies were obtained with specificity for: Melan-A/MART-1 from Vector Labs (Burlingame, Calif.); gp100/HMB45 from DakoCytomation (Carpinteria, Calif.) and then visualized with goat anti-mouse FITC-conjugated secondary antibody from Invitrogen (Frederick, Md.). The level of EGFP was determined by flow cytometry of unfixed cells washed and resuspended in 1×PBS. Surface staining of MHC Class I was carried out using the antibody W6/32 on cells harvested with Cell Stripper from MediaTech Inc. (Manassas, Va.) and carried out on ice.
(§4) Cell were seeded at 1×10^6 cells in a T25 flask with 10 ml of media for the 4 day IFN-beta pre-treatments. Cells were then harvested and plated in 24 well plate at 1×10^5 cells per well in 1 ml of media for 3 day treatments.
(§5) For surface staining of HLA Class I and II antigens, cells were harvested using CellStripper™ from Mediatech (Manassas, Va.). All staining steps were performed on ice. Following a first incubation with antibody to Class I (W6/32) or Class II (L243) for 30 minutes. Stained cells were washed twice with cold PBS and then stained with a goat anti-mouse FITC secondary antibody to allow for quantitative analysis by flow cytometry. For evaluation of cytoplasmic antigens, including Melan-A/MART-1 and gp100, cells were first fixed in paraformaldehyde and permeabilized with saponin as previously described. Staining for cytoplasmic antigens was carried out at room temperature (22° C.).

[2] = test system: tumor cell lines; test: MHC Class I and Class II surface staining, statements over a panel of tumor cell lines; settings: HeLa, MCF-7, U2-OS, MU-89, U118, Jurkat, Raji (Table 19)
Protocol: as §5

[3] = test system: Jurkat T cell lymphoma cells; test: Surface antibody staining and flow cytometry (MHC Class I/II)
Protocol: as §3, §5

[4] = test system: EBV-19 B cell lymphoma cells; test: as above; settings: three days, IFN-β 5000 Units/ml, IFN-γ 100 ng/ml
Protocol: as §3, §5

[5] = test system: U2-OS osteosarcoma cells; test: as above; settings: U2-OS
Protocol: as §3, §4, §5

[6] = test system: HeLa cervical carcinoma cells; test: as above
Protocol: as §3, §4, §5

[7] = test system: Raji B cell lymphoma cells; test: as above
Protocol: as §3, §4, §5

[8] = test system: MCF-7 breast cancer cells; test: as above; settings: MCF-7; single agent
Protocol: as §3, §4, §5

[9] = test system: U-118 MG glioma cell line; test: Antibody staining and flow cytometry (intracellular gp100; surface MHC Class I/II)
Protocol: as §1, §2, §3, §4, §5

[10] = MU89, three days, IFN-β 5000 Units/ml, IFN-γ 100 ng/ml, PU-H71 0.3 mg/ml
[11] = three days, IFN-β 5000 Units/ml, IFN-γ 100 ng/ml, PU-H71 0.3 mg/ml

B1: IFN-γ: IFN-γ-1b stock solution 100 μg/ml in PBS; SEQ ID NO: 5 (protein)
chain: MQDPYVKEAENLKKYFNAGHSDVADNGTLFLGILKNWKEESDRKIMQSQIVSFYFKLFKNFKDDQSIQKSVETIKEDMNVKFFNSNKKKRDDFEKLTNYSVTDLNVQRKAIHELIQVMAELPPAAETGKRKRSQMLFRGR
modifications: IFN-gamma-1b
B1 was tested, and the “MHC Class I, geometric mean of surface staining (W6/32)” value (from here on “MHC Class I, geometric mean”) [1, 10] was 213, the “MHC Class II, geometric mean of surface staining (L2443)” value (“MHC Class II, geometric mean” below) [1, 10] was 139 and the “L243 (MHC Class II surface staining)” value ([1]; MU-89, single agent) was 57.6. The “W6/32 (MHC Class I surface staining)” value ([1]; MU-89, single agent) was 138.0, the “Class I MHC expression over the tumor panel” value [2] was “induce significant increases” and the “Class II MHC expression over the tumor panel” value [2] was “induced significant Class II”. The “L243 (MHC Class II surface staining)” value ([3]; single agent) was 1.1, the “W6/32 (MHC Class I surface staining)” value ([3]; single agent) was 86.5 and the “MHC Class I, geometric mean” value ([3]; three days, IFN-β 5000 Units/ml, IFN-γ 100 ng/ml, PU-H71 0.3 μg/ml) was 87. For the same molecule, the “MHC Class II, geometric mean” value [3, 11] was 1, the “MHC Class II, geometric mean” value ([4]; PU-H71 0.3 mg/ml) was 118 and the “MHC Class I, geometric mean” value ([4]; PU-H71 0.3) was 277. The “L243 (MHC Class II surface staining)” value ([5]; single agent) was 87.6, the “W6/32 (MHC Class I surface staining)” value ([5]; single agent) was 293.2 and the “MHC Class I, geometric mean” value [5, 11] was 284. The “MHC Class II, geometric mean” value [5, 11] was 237, the “L243 (MHC Class II surface staining)” value ([6]; HELA, single agent) was 86.0 and the “W6/32 (MHC Class I surface staining)” value ([6]; HELA, single agent) was 464.8. For the same molecule, the “MHC Class II, geometric mean” value ([6]; HeLa, three days, IFN-β 5000 Units/ml, IFN-γ 100 ng/ml, PU-H71 0.3 mg/ml) was 214, the “MHC Class I, geometric mean” value ([6]; HeLa, three days, IFN-β 5000 Units/ml, IFN-γ 100 ng/ml, PU-H71 0.3) was 637 and the “L243 (MHC Class II surface staining)” value ([7]; single agent) was 339.3. The “W6/32 (MHC Class I surface staining)” value ([7]; single agent) was 117, the “MHC Class I, geometric mean” value [7, 11] was 117 and the “MHC Class II, geometric mean” value [7, 11] was 142. For the same molecule, the “L243 (MHC Class II surface staining)” value [8] was 59.1, the “W6/32 (MHC Class I surface staining)” value [8] was 478.5 and the “MHC Class II, geometric mean” value ([9]; Giloma-118, three days, IFN-β 5000 Units/ml, IFN-γ 100 ng/ml, PU-H71 0.3 mg/ml) was 40. The “MHC Class I, geometric mean” value ([9]; Giloma-118, three days, IFN-β 5000 Units/ml, IFN-γ 100 ng/ml, PU-H71 0.3) was 137, the “L243 (MHC Class II surface staining)” value ([9]; U118, single agent) was 65.3 and the “W6/32 (MHC Class I surface staining)” value ([9]; U118, single agent) was 250.5.

From patent US20140335050A1, “METHODS, COMPOSITIONS, AND KITS FOR THE TREATMENT OF CANCER” (The General Hospital Corporation, priority 2011, published 2014)
